Publication PMC11320123, “Unveiling the molecular mechanisms of the type IX secretion system's response regulator: Structural and functional insights” (PNAS Nexus, 2024)
Where a chain is given by its changes, count along the chain named. Numbers in names are those of the source.

Legend:
PorXFJ = molecular target: T1, PorXFJ (Flavobacterium johnsoniae, UniProt A5FFU4); conditions: phosphate analogue; bound at REC phosphorylation site (Asp54) and at APS catalytic site near Thr271; primitive orthorhombic crystal form
T1 construct: gene Fjoh_2906
T1 sequence (A5FFU4 1-517): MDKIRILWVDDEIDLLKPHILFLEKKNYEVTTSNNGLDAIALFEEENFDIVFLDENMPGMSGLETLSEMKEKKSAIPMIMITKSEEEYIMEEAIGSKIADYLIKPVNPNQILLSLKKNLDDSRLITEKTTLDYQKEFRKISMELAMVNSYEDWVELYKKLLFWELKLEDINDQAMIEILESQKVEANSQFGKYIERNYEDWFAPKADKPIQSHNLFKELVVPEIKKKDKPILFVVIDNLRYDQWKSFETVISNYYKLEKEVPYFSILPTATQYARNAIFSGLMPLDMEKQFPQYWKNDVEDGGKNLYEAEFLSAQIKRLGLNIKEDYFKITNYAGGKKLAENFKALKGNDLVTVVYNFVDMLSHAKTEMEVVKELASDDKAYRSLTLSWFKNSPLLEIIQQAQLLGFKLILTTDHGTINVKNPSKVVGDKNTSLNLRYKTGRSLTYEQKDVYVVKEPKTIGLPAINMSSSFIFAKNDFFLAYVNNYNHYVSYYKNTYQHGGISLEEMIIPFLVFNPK

[1] = molecular target: T2, THB + APS truncation mutant of PorXFJ (Flavobacterium johnsoniae, UniProt A5FFU4); experiment: phosphodiesterase assay; assay type: biochemical; conditions: zinc-dependent
T2 construct: gene Fjoh_2906; REC domain truncated, residues 126–end; ~46 kDa; E. coli BL21
T2 sequence (A5FFU4 126-517): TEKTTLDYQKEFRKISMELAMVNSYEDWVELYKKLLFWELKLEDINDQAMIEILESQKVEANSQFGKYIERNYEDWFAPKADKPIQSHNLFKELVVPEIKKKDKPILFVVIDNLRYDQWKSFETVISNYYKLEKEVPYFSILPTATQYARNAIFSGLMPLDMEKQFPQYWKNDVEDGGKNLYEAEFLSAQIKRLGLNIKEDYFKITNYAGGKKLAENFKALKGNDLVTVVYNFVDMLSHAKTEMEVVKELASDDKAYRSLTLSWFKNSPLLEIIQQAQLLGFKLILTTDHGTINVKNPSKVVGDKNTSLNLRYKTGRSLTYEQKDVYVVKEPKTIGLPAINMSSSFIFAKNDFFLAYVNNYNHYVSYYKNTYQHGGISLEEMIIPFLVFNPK

[2] = molecular target: the molecule itself; experiment: SEC; protein incubated with zinc only (no AcP); Superdex200inc 10/300 GL for wild type and point mutants, Superdex75inc 10/300 GL for truncations; monomer to dimer
[3] = molecular target: the molecule itself; experiment: SEC; protein incubated with acetyl phosphate (AcP) in the presence of magnesium; Superdex200inc 10/300 GL for wild type and point mutants, Superdex75inc 10/300 GL for truncations; monomer to dimer
[4] = molecular target: the molecule itself; experiment: SEC; protein incubated with zinc only (no AcP); Superdex200inc 10/300 GL for wild type and point mutants, Superdex75inc 10/300 GL for truncations; monomer to dimer; remark: listed apart in the source
[5] = molecular target: the molecule itself; experiment: SEC; protein incubated with acetyl phosphate (AcP) in the presence of magnesium; Superdex200inc 10/300 GL for wild type and point mutants, Superdex75inc 10/300 GL for truncations; monomer to dimer; remark: listed apart in the source

[F][Be-]([F])[F] [BeF3]
X-ray co-crystal structure (PorXFJ): we have co-crystallized PorXFJ with the phosphate analog, BeF3

O=[N+]([O-])c1ccc(OP(=O)(O)Oc2ccc([N+](=O)[O-])cc2)cc1 [bis(p-nitrophenyl) phosphate]
phosphodiesterase assay [1]: full-length PorXFJ and the THB + APS truncation mutant

B1: PorXFJ APS + THB domains (126–end) (domain or fragment, UniProt A5FFU4 126-517, looked up)
chain: T2 sequence (A5FFU4 126-517)
notes: also called THB + APS truncation mutant; THB + APS domains; source: E. coli BL21, purified (Ni-NTA, thrombin cleavage, SEC); not shown: 10x-His, N-terminal, cleaved
binding result [2]: binds

B2: PorXFJ REC + THB domains (1–208) (domain or fragment, UniProt A5FFU4 1-208, looked up)
chain: MDKIRILWVDDEIDLLKPHILFLEKKNYEVTTSNNGLDAIALFEEENFDIVFLDENMPGMSGLETLSEMKEKKSAIPMIMITKSEEEYIMEEAIGSKIADYLIKPVNPNQILLSLKKNLDDSRLITEKTTLDYQKEFRKISMELAMVNSYEDWVELYKKLLFWELKLEDINDQAMIEILESQKVEANSQFGKYIERNYEDWFAPKADK
notes: also called REC + THB domains truncated variant; source: E. coli BL21, purified (Ni-NTA, thrombin cleavage, SEC); not shown: 10x-His, N-terminal, cleaved
binding result [2]: binds

B3: PorX from Flavobacterium johnsoniae (PorXFJ), wild type, full length (natural protein, UniProt A5FFU4 1-517, looked up)
chain: T1 sequence (A5FFU4 1-517)
notes: also called WT; Fjoh_2906; source: E. coli BL21, purified (Ni-NTA, thrombin cleavage, SEC); not shown: 10x-His, N-terminal, cleaved
binding result [3]: binds

B4: PorXFJ D54A (REC domain phosphorylation-null mutant) (natural protein, UniProt A5FFU4 1-517, looked up)
chain: T1 sequence (A5FFU4 1-517) with D54A
notes: source: E. coli BL21, purified (Ni-NTA, thrombin cleavage, SEC); not shown: 10x-His, N-terminal, cleaved
binding result [4]: binds

B5: PorXFJ L113E (REC domain dimerization interface mutant) (natural protein, UniProt A5FFU4 1-517, looked up)
chain: T1 sequence (A5FFU4 1-517) with L113E
notes: as for B4
binding result [4]: binds

B6: PorXFJ S384A/S388E double mutant (APS domain dimerization interface) (natural protein, UniProt A5FFU4 1-517, looked up)
chain: T1 sequence (A5FFU4 1-517) with S384A, S388E
notes: also called S348A/S388E (as printed once); source: E. coli BL21, purified (Ni-NTA, thrombin cleavage, SEC); not shown: 10x-His, N-terminal, cleaved
binding result [5]: binds

B7: PorXFJ T271V (APS domain catalytically inactive mutant) (natural protein, UniProt A5FFU4 1-517, looked up)
chain: T1 sequence (A5FFU4 1-517) with T271V
notes: as for B4
binding result [5]: binds

B8: PorXFJ D360A/H364A double mutant (zinc coordination, Zn1 site) (natural protein, UniProt A5FFU4 1-517, looked up)
chain: T1 sequence (A5FFU4 1-517) with D360A, H364A
notes: as for B4
binding result [5]: binds

B9: PorXFJ REC domain (1–121) (domain or fragment, UniProt A5FFU4 1-121, looked up)
chain: MDKIRILWVDDEIDLLKPHILFLEKKNYEVTTSNNGLDAIALFEEENFDIVFLDENMPGMSGLETLSEMKEKKSAIPMIMITKSEEEYIMEEAIGSKIADYLIKPVNPNQILLSLKKNLDD
notes: also called REC domain only truncation variant; source: E. coli BL21, purified (Ni-NTA, thrombin cleavage, SEC); not shown: 10x-His, N-terminal, cleaved
binding result [5]: binds
